One molecule from patent US20160159888A1 (CANCER RESEARCH TECHNOLOGY, published 2016) can be followed below.

The target in assay [1] is T1, S100A4 peptide 8 (FLSCIAMMCNEF, 12-mer: 78-89) (human).
T1 construct: also called P8
T1 peptide: FLSCIAMMCNEF
The experiment in a line: peptide ELISA (FIG. 4A). (In general: In an ELISA, binding on a coated surface is turned into a signal by an enzyme label.)

The target in assay [2] is T2, S100A4 peptide 7 (RDNEVDFQEYCV, 12-mer: 66-77) (human).
T2 construct: also called P7
T2 peptide: RDNEVDFQEYCV
The experiment in a line: peptide ELISA (FIG. 4A).

For a further assay, the target named is T3, h S100A12 (human, UniProt P80511).
T3 construct: purified protein on a PVDF membrane; one of the 'other S100 family members'; no amido black loading band is visible for this lane in the scan; also called human S100A12
T3 sequence (looked up): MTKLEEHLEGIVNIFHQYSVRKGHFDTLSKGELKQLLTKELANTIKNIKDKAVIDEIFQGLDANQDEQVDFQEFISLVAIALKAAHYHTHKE
The experiment in a line: Western blot of purified S100 proteins on PVDF membrane. (In western blotting, separated proteins are transferred to a membrane and probed.)

For a further assay, the target named is T4, h S100A9 (human, UniProt P06702).
T4 construct: purified protein on a PVDF membrane; one of the 'other S100 family members'; also called human S100A9
T4 sequence (looked up): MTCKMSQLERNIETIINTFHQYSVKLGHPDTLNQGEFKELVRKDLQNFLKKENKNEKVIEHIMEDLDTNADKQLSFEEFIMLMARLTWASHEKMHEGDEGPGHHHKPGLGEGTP
The assay is described as above.

The next assay concerns the target T5, h S100A5 (human, UniProt P33763).
T5 construct: purified protein on a PVDF membrane; one of the 'other S100 family members'; also called human S100A5
T5 sequence (looked up): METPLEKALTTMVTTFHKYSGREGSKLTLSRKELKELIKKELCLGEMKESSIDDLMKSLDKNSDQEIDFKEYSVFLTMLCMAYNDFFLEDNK
The assay is described as above.

In another assay the target is T6, h S100A1 (human, UniProt P23297).
T6 construct: purified protein on a PVDF membrane; one of the 'other S100 family members'; also called human S100A1
T6 sequence (looked up): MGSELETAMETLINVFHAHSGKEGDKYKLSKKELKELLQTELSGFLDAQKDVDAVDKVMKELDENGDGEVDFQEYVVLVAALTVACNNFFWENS
The description is as above.

The target in another assay is T7, h S100B (human, UniProt P04271).
T7 construct: purified protein on a PVDF membrane; one of the 'other S100 family members'; also called human S100B
T7 sequence (looked up): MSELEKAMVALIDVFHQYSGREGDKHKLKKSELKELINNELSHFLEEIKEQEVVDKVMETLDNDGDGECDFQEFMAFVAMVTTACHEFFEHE
The description is as above.

The target in another assay is T8, h S100A2 (human, UniProt P29034).
T8 construct: purified protein on a PVDF membrane; one of the 'other S100 family members'; its amido black loading band is very faint in the scan; also called human S100A2
T8 sequence (P29034 whole entry, one chain of several): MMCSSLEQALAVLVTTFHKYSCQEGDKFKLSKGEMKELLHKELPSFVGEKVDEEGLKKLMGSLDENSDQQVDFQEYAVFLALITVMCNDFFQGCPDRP
The assay is described as above.

A further assay addresses T9, mouse S100A4 protein (mouse, UniProt P07091 2-101, limits assumed).
T9 construct: also called murine S100A4; recombinant mouse S100A4 protein
The assay can be described thus: ELISA screen of hybridoma clones on mouse S100A4.

The target of the next assay is T10, pep 6.
T10 construct: also called S100A4 peptide 6; #6 (12-mer: 54-65)
T10 chain: AFQKLMSNLDSN
The assay can be described thus: peptide ELISA, absorbance 450 nm (Pep-BG).

The target in the next assay is T11, pep 5.
T11 construct: also called S100A4 peptide 5; #5 (11-mer: 43-53)
T11 chain: PSFLGKRTDEA
The assay can be described thus: peptide ELISA, absorbance 450 nm (Pep-BG).

Assay [3] has as its target T12, S100A4 peptide 9 (FEGFPDKQPRKK, 12-mer: 90-101) (human).
T12 construct: also called P9; C-terminal peptide
T12 peptide: FEGFPDKQPRKK
The assay can be described thus: peptide ELISA, absorbance 450 nm (Pep-BG).

The next assay concerns the target T13, pep 4.
T13 construct: also called S100A4 peptide 4; #4 (11-mer: 32-42)
T13 chain: SELKELLTREL
The experiment in a line: peptide ELISA, absorbance 450 nm (Pep-BG).

In another assay the target is T14, pep 3.
T14 construct: also called S100A4 peptide 3; #3 (11-mer: 21-31)
T14 chain: GKEGDKFKLNK
The experiment in a line: peptide ELISA, absorbance 450 nm (Pep-BG).

Another assay concerns the target T15, pep 1.
T15 construct: also called S100A4 peptide 1; #1 (10-mer: 1-10)
T15 chain: MACPLEKALD
The assay can be described thus: peptide ELISA, absorbance 450 nm (Pep-BG).

Another assay deals with T16, pep 2.
T16 construct: also called S100A4 peptide 2; #2 (10-mer: 11-20)
T16 chain: VMVSTFHKYS
The assay can be described thus: peptide ELISA, absorbance 450 nm (Pep-BG).

The target in a further assay is T17, human S100A4 protein (human, UniProt P26447 2-101, limits assumed).
T17 construct: Recombinant protein on blots and endogenous protein in extracts of human cell lines; also called human S100A4 recombinant protein
T17 sequence (P26447 2-101 limits assumed, one chain of several): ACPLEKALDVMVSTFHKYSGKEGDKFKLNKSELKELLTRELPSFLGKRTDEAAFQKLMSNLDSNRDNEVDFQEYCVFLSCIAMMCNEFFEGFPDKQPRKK
The experiment in a line: Western blot of recombinant proteins and of cell extracts (FIG. 1).

Assay [4] deals with T18, recombinant S100A4 protein (species not stated for the experiment).
T18 construct: also called immobilized S100A4; oligomeric S100A4
T18 sequence (P07091 whole entry): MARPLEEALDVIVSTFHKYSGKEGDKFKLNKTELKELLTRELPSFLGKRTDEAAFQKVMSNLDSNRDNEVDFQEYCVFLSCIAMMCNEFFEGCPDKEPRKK
The assay can be described thus: SPR (BIAcore 2000), S100A4 amine-coupled to CM5 chip, mAb injected, 1:1 fit. As for the experimental part:
All SPR analyses were conducted on a BIAcore 2000 system (GE-Healthcare Life Sciences, Upsala, Sweden). The experiments were performed at 25° C. using HBST/Ca (10 mM HEPES, 150 mM NaCl, 0.005% Tween® and 50 μM CaCl2) as running buffer. The S100A4 protein was immobilized on a sensor chip CM5 (GE-Healthcare, BR-1000-12) using the amine coupling kit from GE Healthcare (BR-1000-50). The flow rate was set to 5 μl/min. The flow cells were activated individually by injecting 35 μl freshly mixed 0.4 M EDC ((N-(3-dimethylaminopropyl)-N′-ethylcarbodiimide hydrochloride) in 0.05 M NHS (N-hydroxysuccinimide) solution. Then 5 μg/ml S100A4 protein diluted in 10 mM acetic acid, pH 5.0 was injected for 1 to 10 minutes until the desired level of immobilization was reached (about 400 to 800 RU). The remaining active groups were deactivated by injecting 35 μl 1 M ethanolamine (pH 8.5). All experiment included a reference surface which was prepared by activating and deactivating of the surface of flow cell 1 (FC1). The blank surface reference was used to correct for bulk effects and nonspecific binding. The channel referencing was done automatically by the BIACORE 2000 control software.
The injections were performed using the KINJECT mode (injection10 min, dissociation 20-30 min). The flow rate during injection and regeneration was kept at 50 μl/min. […]
(Surface plasmon resonance follows binding to a sensor surface in real time, without labels.)

T9 sequence (P07091 2-101 limits assumed, one chain of several): as the sequence (P26447 2-101 limits assumed, one chain of several) above, with C2R, K6E, M11I, S31T, L57V, F92C, Q96E counted along it

B1: anti-S100A4 mouse monoclonal antibody, clone 6B12 (antibody, V domains shown)
VH: DVQLQESGPGLVKPSQSLSLTCSVTGDSFTNDYYWNWIRQFPGSKLEWMGHIGYGGNINYNPSLKNRISITRDTSKNQFFLRLTSVTTEDTATYYCTRESFYDGYPFDYWGQGTLVTVSA
VL: DIQMTQTTSSLSASLGDRVTISCRASQDIRNYLNWYQQRPGGTLKLLIYYTSRLHSGVPSRFSGSGSGTDYSLTISNLEQEDIATYFCQQGNSLPRTFGGGTKLEIK
notes: constant regions are not; also called 6B12 mAb; mAb 6B12
Regarding B1, the binding result in [1] is given as “binds”; in assay [2], “binds”; with h S100A12 it was “no binding”; with h S100A9, “no binding”; with h S100A5 it was “no binding”; in the assay with h S100A1, “no binding”. Also, the binding result with h S100B is listed as “no binding”; with h S100A2, “no binding”; with mouse S100A4 protein, “binds”; with pep 6, “no binding”; with pep 5 it was “no binding”; in assay [3], “no binding”. Further, the binding result is “no binding” in the assay with pep 4; “no binding” with pep 3; “no binding” in the assay with pep 1; “no binding” with pep 2; “binds” with human S100A4 protein. For the same molecule, the Kd (as a rule, the constant that tells how readily two partners part at equilibrium) in assay [4] came out at 0.114 nM. The kon (as a rule, the rate constant with which the complex forms) in assay [4] was 287000 M⁻¹ s⁻¹.
